In patent CN114195896A (AQUILARIA SINENSIS QINGSU BIOTECHNOLOGY CO LTD, dated 2022):

B1: 商业化BCMA抗原蛋白 (ACRO BIOSYSTEMS, 货号BCA-H522y-1mg) (receptor, UniProt Q02223 1-54, looked up)
chain: MLQMAGQCSQNEYFDSLLHACIPCQLRCSSNTPPLTCQRYCNASVTNSVKGTNA
notes: also called 目标抗原BCMA; 靶蛋白BCMA
B2: 16-B7重组抗体 (16-B7 recombinant antibody, VHH fused to hIgG1 Fc) (Fc fusion)
chain: QARFVESGGGLVQSGGSLVLSCTVSDVTLDDYVTAWFRQAPGKEREGVSCISKRNFTSYVDSVKGRFTTSRDITKNTVLLQMNALTPEDTGVYYCATPILPSLAFGEVCSLQTEFRSWGPGTRVTVSS
notes: also called 16-B7纯化重组抗体; 原始序列16-B7; not shown: human IgG1 Fc from the expression vector pcDNA3.1-hIgG1-Fc2

How the values were obtained:
[1] = molecular target: T1, 16-B7-HM4人源化重组抗体 (humanised 16-B7-HM4 recombinant antibody, VHH fused to hIgG1 Fc) (human, UniProt P01857-1 99-330 = IgG part, limits assumed); assay: SPR, BCMA immobilised on the chip, recombinant antibody as the mobile phase
T1 construct: domain: Fc; also called 人源化重组抗体16-B7-HM4
T1 sequence (P01857 other isoform, or with tags, fused parts or gaps limits assumed): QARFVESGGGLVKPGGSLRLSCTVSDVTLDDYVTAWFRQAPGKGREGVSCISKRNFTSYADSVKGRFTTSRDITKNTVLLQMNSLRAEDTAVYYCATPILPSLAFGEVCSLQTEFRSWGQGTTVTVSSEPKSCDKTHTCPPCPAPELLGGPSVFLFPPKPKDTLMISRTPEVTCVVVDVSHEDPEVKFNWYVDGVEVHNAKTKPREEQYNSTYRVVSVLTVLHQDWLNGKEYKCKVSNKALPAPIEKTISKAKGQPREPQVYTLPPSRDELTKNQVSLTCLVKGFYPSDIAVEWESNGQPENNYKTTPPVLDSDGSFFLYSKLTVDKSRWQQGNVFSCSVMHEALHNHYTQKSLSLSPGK

[2] = molecular target: BCMA expressed on recombinant cells (CHO-BCMA; Nalm6-BCMA-LUC) (UniProt Q02223); assay: flow cytometry on CHO-BCMA cells, purified antibody at 10, 2, 0.4 and 0.08 μg/mL
[3] = molecular target: B1; assay: SPR, BCMA immobilised on the chip, recombinant antibody as the mobile phase

Kd [1] [nM] | antibody concentration at saturation [2] [µg/mL] | Kd [3] [nM] | Binder
1.06 | – | – | B1
– | 2 | 3.73 | B2
